Results on two molecules are retold here after patent US20170082633A1 (WHITEHEAD INSTITUTE FOR BIOMEDICAL RESEARCH, published 2017).

In one test the target is T1, endogenous SLC38A9 (human, UniProt Q8NBW4 1-561, limits assumed).
T1 construct: Endogenous protein of HEK-293T cells, found by LC-MS-MS or immunoblot; also called SLC38A9 (NCBI Gene ID: 153129)
T1 sequence: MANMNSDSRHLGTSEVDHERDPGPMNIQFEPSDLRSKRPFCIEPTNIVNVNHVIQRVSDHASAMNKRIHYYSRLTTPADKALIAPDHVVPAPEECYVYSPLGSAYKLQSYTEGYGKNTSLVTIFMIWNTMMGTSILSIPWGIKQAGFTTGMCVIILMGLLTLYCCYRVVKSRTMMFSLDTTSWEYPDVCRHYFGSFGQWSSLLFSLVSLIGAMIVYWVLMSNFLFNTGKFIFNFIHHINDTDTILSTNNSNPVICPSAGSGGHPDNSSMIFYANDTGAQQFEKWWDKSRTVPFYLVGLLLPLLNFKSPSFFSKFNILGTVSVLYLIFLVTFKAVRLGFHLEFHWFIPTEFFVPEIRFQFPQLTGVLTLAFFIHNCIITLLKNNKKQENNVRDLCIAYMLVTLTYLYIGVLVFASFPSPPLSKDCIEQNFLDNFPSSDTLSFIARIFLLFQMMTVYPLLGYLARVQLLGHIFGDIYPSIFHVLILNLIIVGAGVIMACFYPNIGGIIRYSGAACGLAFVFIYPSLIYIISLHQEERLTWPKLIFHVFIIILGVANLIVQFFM
The experiment in a line: FLAG IP from HEK-293T cells stably expressing the bait, - or + amino acids; immunoblot.

The target in a further test is T2, raptor (human (HEK-293T cells), UniProt Q8N122).
T2 construct: endogenous; Named only on the sheet
T2 sequence (Q8N122 whole entry): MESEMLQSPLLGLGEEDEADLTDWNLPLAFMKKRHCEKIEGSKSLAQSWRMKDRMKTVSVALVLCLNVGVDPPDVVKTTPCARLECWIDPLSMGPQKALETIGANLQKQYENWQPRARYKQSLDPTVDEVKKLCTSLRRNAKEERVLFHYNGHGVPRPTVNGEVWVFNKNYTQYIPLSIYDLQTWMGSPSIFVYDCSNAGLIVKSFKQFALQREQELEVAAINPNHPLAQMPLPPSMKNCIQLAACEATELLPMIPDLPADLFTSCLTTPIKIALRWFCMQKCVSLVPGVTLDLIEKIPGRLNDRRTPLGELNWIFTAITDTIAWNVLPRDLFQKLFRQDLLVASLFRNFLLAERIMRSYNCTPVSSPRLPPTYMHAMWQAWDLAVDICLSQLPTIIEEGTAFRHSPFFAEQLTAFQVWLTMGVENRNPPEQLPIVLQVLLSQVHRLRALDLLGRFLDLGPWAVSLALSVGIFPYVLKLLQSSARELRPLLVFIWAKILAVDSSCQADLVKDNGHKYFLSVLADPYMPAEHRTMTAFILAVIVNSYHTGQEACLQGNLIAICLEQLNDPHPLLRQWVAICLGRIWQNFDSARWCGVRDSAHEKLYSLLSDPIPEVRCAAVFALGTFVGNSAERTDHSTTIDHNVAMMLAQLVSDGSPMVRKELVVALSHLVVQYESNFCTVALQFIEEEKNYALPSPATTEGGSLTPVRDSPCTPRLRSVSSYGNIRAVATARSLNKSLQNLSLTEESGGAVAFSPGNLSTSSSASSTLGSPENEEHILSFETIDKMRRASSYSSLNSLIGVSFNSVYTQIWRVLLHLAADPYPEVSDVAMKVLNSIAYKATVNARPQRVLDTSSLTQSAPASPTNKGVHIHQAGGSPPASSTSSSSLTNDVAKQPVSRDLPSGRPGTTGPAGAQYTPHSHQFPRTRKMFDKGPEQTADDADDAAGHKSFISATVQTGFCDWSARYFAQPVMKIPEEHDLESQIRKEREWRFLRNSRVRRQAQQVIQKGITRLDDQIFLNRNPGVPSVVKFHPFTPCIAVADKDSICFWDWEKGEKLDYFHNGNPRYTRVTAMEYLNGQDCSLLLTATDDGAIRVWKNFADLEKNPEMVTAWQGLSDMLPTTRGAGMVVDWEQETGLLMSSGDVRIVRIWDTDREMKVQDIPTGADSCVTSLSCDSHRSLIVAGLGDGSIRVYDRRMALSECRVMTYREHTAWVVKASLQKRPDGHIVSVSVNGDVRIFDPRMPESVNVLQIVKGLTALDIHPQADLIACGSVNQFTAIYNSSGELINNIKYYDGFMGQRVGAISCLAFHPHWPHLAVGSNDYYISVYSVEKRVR
The experiment in a line: FLAG IP from transfected HEK-293T cells, immunoblot. On the procedure: HEK-293T cells were cultured in DMEM supplemented with 10% inactivated fetal bovine serum, penicillin (100 IU/mL), and streptomycin (100 μg/mL) and maintained at 37° C. and 5% CO₂. Two million HEK-293T cells were plated in 10 cm culture dishes.
Transfection mixes were taken up to a total of 5 μg of DNA using empty pRK5. HEK-293T cells stably expressing FLAG-tagged proteins were rinsed once with ice-cold PBS and lysed in ice-cold lysis buffer (40 mM HEPES pH 7.4, 1% Triton X-100, 10 mM β-glycerol phosphate, 10 mM pyrophosphate, 2.5 mM MgC12 and 1 tablet of EDTA-free protease inhibitor (Roche) per 25 ml buffer). The soluble fractions from cell lysates were isolated by centrifugation at 13,000 rpm for 10 min in a microcentrifuge. […] Immunoprecipitates were washed three times with lysis buffer containing 500 mM NaCl. Immunoprecipitated proteins were denatured by the addition of 50 μL of sample buffer and incubation at RT for 30 min. It is critical that the samples containing SLC38A9 are neither boiled nor frozen prior to resolution by SDS-PAGE and analysis by immunoblotting. A similar protocol was employed when preparing samples for mass spectrometry.

The target in test [1] is co-expressed epitope tagged Ragulator proteins (UniProt Q6IAA8 2-161; Q9Y2Q5 1-125; Q9UHA4 1-124; Q0VGL1 1-99; O43504 1-91). The experiment in a line: FLAG IP (FLAG-p14) from HEK-293T cells co-transfected with the HA-tagged Ragulator components and HA-SLC38A9.4; immunoblot.

B1: FLAG-metap2 (enzyme)
chain: DYKDDDDKMAGVEEVAASGSHLNGDLDPDDREEGAASTAEEAAKKKRRKKKKSKGPSAAGEQEPDKESGASVDEVARQLERSALEDKERDEDDEDGDGDGDGATGKKKKKKKKKRGPKVQTDPPSVPICDLYPNGVFPKGQECEYPPTQDGRTAAWRTTSEEKKALDQASEEIWNDFREAAEAHRQVRKYVMSWIKPGMTMIEICEKLEDCSRKLIKENGLNAGLAFPTGCSLNNCAAHYTPNAGDTTVLQYDDICKIDFGTHISGRIIDCAFTVTFNPKYDTLLKAVKDATNTGIKCAGIDVRLCDVGEAIQEVMESYEVEIDGKTYQVKPIRNLNGHSIGQYRIHAGKTVPIVKGGEATRMEEGEVYAIETFGSTGKGVVHDDMECSHYMKNFDVGHVPIRLPRTKHLLNVINENFGTLAFCRRWLDRLGESKYLMALKNLCDLGIVDPYPPLCDIKGSYTAQFEHTILLRPTCKEVVSRGDDY
notes: Control bait; also called control protein Metap2
Consider B1, for which the binding result with endogenous SLC38A9 and with raptor was “no binding” throughout.

B2: HA-SLC38A9.4 (other)
single chain: LVTIFMIWNTMMGTSILSIPWGIKQAGFTTGMCVIILMGLLTLYCCYRVVKSRTMMFSLDTTSWEYPDVCRHYFGSFGQWSSLLFSLVSLIGAMIVYWVLMSNFLFNTGKFIFNFIHHINDTDTILSTNNSNPVICPSAGSGGHPDNSSMIFYANDTGAQQFEKWWDKSRTVPFYLVGLLLPLLNFKSPSFFSKFNILGTVSVLYLIFLVTFKAVRLGFHLEFHWFIPTEFFVPEIRFQFPQLTGVLTLAFFIHNCIITLLKNNKKQENNVRDLCIAYMLVTLTYLYIGVLVFASFPSPPLSKDCIEQNFLDNFPSSDTLSFIARIFLLFQMMTVYPLLGYLARVQLLGHIFGDIYPSIFHVLILNLIIVGAGVIMACFYPNIGGIIRYSGAACGLAFVFIYPSLIYIISLHQEERLTWPKLIFHVFIIILGVANLIVQFFM
notes: also called HA-tagged SLC38A9 isoform 4
Take B2: in test [1], the binding result is “no binding”.
